Data as given in patent US11230581B2, “Peptides and combination of peptides for use in immunotherapy against ovarian cancer and other cancers” (Immatics Biotechnologies GmbH, priority 2015, dated 2022).

Target: HLA-A*02:01 (Homo sapiens, UniProt P04439, D140Y/D185E/D98H/E176V/E277Q/G131W/G231S/I119V/I121R/I166T/I218V/L300P/L318F/N151K/N90K/P208A/P217A/Q86G/Q94H/R138H/R169H/T345S)
Assay: MHC binding assay (UV-ligand exchange, β2m ELISA, peptide exchange yield)
Conditions: binding of HLA-class I restricted peptides to HLA-A*02:01, UV-ligand exchange
How it was run: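 Peptide-MHC complexes formed by UV-ligand exchange, cleaving a UV-sensitive placeholder peptide in favour of the test peptide. Exchange yield measured by ELISA: monomers diluted 100-fold onto streptavidin-coated plates, 1 h 37 °C, detected with 2 ug/ml HRP anti-β2m and TMB, absorbance at 450 nm.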

Substance	Peptide exchange (MHC class I binding score, peptide exchange yield)
239 (AAFAGKLLSV; listed as Homo sapiens) [compound 239]	“+++” (≥50 = +++)
240 (ILLEQAFYL; listed as Homo sapiens) [compound 240]	“+++” (≥50 = +++)
241 (SLVEVNPAYSV; listed as Homo sapiens) [compound 241]	“+++” (≥50 = +++)
242 (AIAYILQGV; listed as Homo sapiens) [compound 242]	“++” (≥20% = ++)
243 (LLLNELPSV; listed as Homo sapiens) [compound 243]	“+++” (≥50 = +++)
244 (SLFGGTEITI; listed as Homo sapiens) [compound 244]	“+++” (≥50 = +++)
245 (SMIDDLLGV; listed as Homo sapiens) [compound 245]	“+++” (≥50 = +++)
246 (LLWEVVSQL; listed as Homo sapiens) [compound 246]	“+++” (≥50 = +++)
247 (VLLPNDLLEKV; listed as Homo sapiens) [compound 247]	“+++” (≥50 = +++)
248 (FLFPNQYVDV; listed as Homo sapiens) [compound 248]	“+++” (≥50 = +++)
249 (LLDGFLVNV; listed as Homo sapiens) [compound 249]	“+++” (≥50 = +++)
250 (ALSEEGLLVYL; listed as Homo sapiens) [compound 250]	“+++” (≥50 = +++)
251 (ALYTGFSILV; listed as Homo sapiens) [compound 251]	“++” (≥20% = ++)
252 (LLIGTDVSL; listed as Homo sapiens) [compound 252]	“+++” (≥50 = +++)
253 (GLDAATATV; listed as Homo sapiens) [compound 253]	“++” (≥20% = ++)
254 (TLLAFIMEL; listed as Homo sapiens) [compound 254]	“+++” (≥50 = +++)
255 (VLASYNLTV; listed as Homo sapiens) [compound 255]	“+++” (≥50 = +++)
256 (FLPPEHTIVYI; listed as Homo sapiens) [compound 256]	“+++” (≥50 = +++)
257 (SIFSAFLSV; listed as Homo sapiens) [compound 257]	“+++” (≥50 = +++)
258 (ELAERVPAI; listed as Homo sapiens) [compound 258]	“++” (≥20% = ++)
261 (YVLEFLEEI; listed as Homo sapiens) [compound 261]	“++” (≥20% = ++)

Substance	Peptide exchange (MHC class I binding score, peptide exchange yield)
262 (LLWGDLIWL; listed as Homo sapiens) [compound 262]	“+++” (≥50 = +++)
263 (LLVSNLDFGV; listed as Homo sapiens) [compound 263]	“+++” (≥50 = +++)
264 (SLQEQLHSV; listed as Homo sapiens) [compound 264]	“+++” (≥50 = +++)
265 (LLFGGTKTV; listed as Homo sapiens) [compound 265]	“++” (≥20% = ++)
266 (KITDTLIHL; listed as Homo sapiens) [compound 266]	“+++” (≥50 = +++)
267 (ALQDFLLSV; listed as Homo sapiens) [compound 267]	“+++” (≥50 = +++)
269 (RVLEVGALQAV; listed as Homo sapiens) [compound 269]	“++” (≥20% = ++)
270 (LLLDEEGTFSL; listed as Homo sapiens) [compound 270]	“++” (≥20% = ++)
271 (LVYPLELYPA; listed as Homo sapiens) [compound 271]	“+++” (≥50 = +++)
272 (ALGNTVPAV; listed as Homo sapiens) [compound 272]	“+++” (≥50 = +++)
273 (NLFQSVREV; listed as Homo sapiens) [compound 273]	“++” (≥20% = ++)
274 (SLLFSLFEA; listed as Homo sapiens) [compound 274]	“++” (≥20% = ++)
275 (YLVYILNEL; listed as Homo sapiens) [compound 275]	“++” (≥20% = ++)
276 (ALFTFSPLTV; listed as Homo sapiens) [compound 276]	“+++” (≥50 = +++)
277 (LLPPLESLATV; listed as Homo sapiens) [compound 277]	“++” (≥20% = ++)
278 (QLLDVVLTI; listed as Homo sapiens) [compound 278]	“++” (≥20% = ++)
279 (ALWGGTQPLL; listed as Homo sapiens) [compound 279]	“++” (≥20% = ++)
280 (VLPDPEVLEAV; listed as Homo sapiens) [compound 280]	“+++” (≥50 = +++)
281 (ILRESTEEL; listed as Homo sapiens) [compound 281]	“+++” (≥50 = +++)
282 (LLADVVPTT; listed as Homo sapiens) [compound 282]	“+++” (≥50 = +++)
283 (ALYIGDGYVIHLA; listed as Homo sapiens) [compound 283]	“+++” (≥50 = +++)

Substance	Peptide exchange (MHC class I binding score, peptide exchange yield)
284 (ILLSQTTGV; listed as Homo sapiens) [compound 284]	“+++” (≥50 = +++)
285 (QLLHVGVTV; listed as Homo sapiens) [compound 285]	“+++” (≥50 = +++)
286 (YLFPGIPEL; listed as Homo sapiens) [compound 286]	“+++” (≥50 = +++)
287 (FLNEFFLNV; listed as Homo sapiens) [compound 287]	“+++” (≥50 = +++)
288 (NLINEINGV; listed as Homo sapiens) [compound 288]	“+++” (≥50 = +++)
289 (VLLEIEDLQV; listed as Homo sapiens) [compound 289]	“++++” (≥75% = ++++)
295 (VLDRESPNV; listed as Homo sapiens) [compound 295]	“+++” (≥50 = +++)
296 (FMEGAIIYV; listed as Homo sapiens) [compound 296]	“+++” (≥50 = +++)
297 (VLADIELAQA; listed as Homo sapiens) [compound 297]	“+++” (≥50 = +++)
298 (VMITKLVEV; listed as Homo sapiens) [compound 298]	“+++” (≥50 = +++)
299 (YLLETSGNL; listed as Homo sapiens) [compound 299]	“+++” (≥50 = +++)
300 (ALLGQTFSL; listed as Homo sapiens) [compound 300]	“+++” (≥50 = +++)
301 (FLVEDLVDSL; listed as Homo sapiens) [compound 301]	“+++” (≥50 = +++)
302 (ALLQEGEVYSA; listed as Homo sapiens) [compound 302]	“+++” (≥50 = +++)
303 (AILPQLFMV; listed as Homo sapiens) [compound 303]	“++++” (≥75% = ++++)
304 (MTLGQIYYL; listed as Homo sapiens) [compound 304]	“+++” (≥50 = +++)
305 (SIANFSEFYV; listed as Homo sapiens) [compound 305]	“++++” (≥75% = ++++)
306 (ALVNVQIPL; listed as Homo sapiens) [compound 306]	“+++” (≥50 = +++)
307 (ALPVSLPQI; listed as Homo sapiens) [compound 307]	“+++” (≥50 = +++)
